Among the data in patent US20070041901, “Stabilized aptamers to PSMA and their use as prostate cancer therapeutics” (published 2007) are Kd, binding result and IC50 values, retold here.

The target in series [1] is T1, PSMA (prostate-specific membrane antigen) extracellular domain (Homo sapiens, UniProt Q04609 SEQ:23-728). The series can be described thus: filter; dot blot, 1x SHMCK pH 7.4 (1 mM Mg, Ca), room temp, no tRNA. Conditions: label: 32P 5'-end.
Series [2] addresses T1, PSMA (prostate-specific membrane …). The series can be described thus: filter; dot blot; max bound 22%. On the procedure: (§1) Dot Blot Binding Analysis. Dot blot binding assays were performed throughout the selections to monitor the protein binding affinity of the pools. For initial pool screening, trace ³²P-labeled pool RNA was combined with PSMA and incubated at room temperature for 30 min in 1×SHMCK buffer pH 7.4 (20 mM Hepes pH 7.4, 120 mM NaCl, 5 mM KCl, 1 mM MgCl₂, […]) plus 0.1 mg/mL tRNA in a final volume of 30 μl. The mixture was applied to a dot blot apparatus (Schleicher and Schuell Minifold-1 Dot Blot, Acrylic, Keene, N.H.), assembled (from top to bottom) with nitrocellulose, nylon, and gel blot membranes. RNA that is bound to protein is captured on the nitrocellulose filter; whereas the non-protein bound RNA is captured on the nylon filter. […] The Round 9 pool was cloned and screened in a single point dot blot assay using 100 nM PSMA (0 nM PSMA was used as a negative control). Clone transcripts were 5′end labeled with ³²-P ATP. Likely binders were than assayed for KD determination by the blot assay conditions described directly above, but without tRNA, using an 8 point PSMA titration with a constant RNA concentration. […] Both of the clones screened were unique sequences in the Round 9 selection pool.
(§2) In order to identify the core structural elements required for ARC955 binding to PSMA, the 3′-boundaries of the clone was determined through alkaline hydrolysis.

The target is the same in series [3]. The series is described as follows: filter; no binding in dot blot. On the procedure: as §1, §2
The target is the same in series [4]. The series can be described thus: filter; dot blot; max bound 52%. On the procedure: as §1, §2
Series [5] shares this target. The series is described as follows: filter; dot blot without tRNA. Conditions: hairpin with conserved 16-nt loop, A-rich asymmetric bulge.
The target is the same in series [6]. The series is described as follows: inhibition; NAALADase inhibition, 40 mM Tris pH 7.4, 0.1 mM ZnSO4, 37 C. Conditions: hairpin with conserved 16-nt loop, A-rich asymmetric bulge.
For series [7] the target is unchanged. The series can be described thus: FP filter; dot blot, nitrocellulose; max bound 33%. On the procedure: as §1, §2

T1 sequence (Q04609 45-750): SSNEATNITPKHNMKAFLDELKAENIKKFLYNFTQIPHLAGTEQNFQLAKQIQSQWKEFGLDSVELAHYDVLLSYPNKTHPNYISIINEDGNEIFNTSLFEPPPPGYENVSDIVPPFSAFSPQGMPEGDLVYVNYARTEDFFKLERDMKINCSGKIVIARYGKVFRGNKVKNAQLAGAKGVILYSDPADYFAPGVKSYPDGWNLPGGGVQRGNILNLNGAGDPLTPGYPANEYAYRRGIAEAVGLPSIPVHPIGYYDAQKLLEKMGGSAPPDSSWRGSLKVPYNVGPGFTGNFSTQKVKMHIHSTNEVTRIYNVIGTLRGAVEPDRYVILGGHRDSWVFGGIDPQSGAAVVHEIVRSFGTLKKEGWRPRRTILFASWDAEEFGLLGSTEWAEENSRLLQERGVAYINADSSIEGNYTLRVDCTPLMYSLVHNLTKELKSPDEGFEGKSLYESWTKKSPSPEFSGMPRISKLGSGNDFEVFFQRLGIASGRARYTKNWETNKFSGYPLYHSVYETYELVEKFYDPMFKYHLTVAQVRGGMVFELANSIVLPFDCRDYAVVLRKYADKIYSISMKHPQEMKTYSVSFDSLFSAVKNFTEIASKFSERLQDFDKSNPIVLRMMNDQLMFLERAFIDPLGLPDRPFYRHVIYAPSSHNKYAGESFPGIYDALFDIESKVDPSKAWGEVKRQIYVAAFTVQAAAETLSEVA

B1: ARC955 (G2) (ssRNA)
RNA: GGGAGAGGAGAGAACGUUCUACUAUGGGUGGCUGGGAGGGGAAGAGGGAGUAGGUCGAUCGAUCGAUCAUCGAUG
modifications: 2'-OMe A, C, U; 2'-OH G (rGmH)
As a reminder, the Kd is the free concentration of one partner at which half of the binding sites on the other are occupied at equilibrium, for simple one-to-one binding. B1 displayed a Kd in series [1] of 9 nM. In turn, CUACUGGGUGGCUGGGAGGGGAAGAGGGAGUAG (ssRNA, 2'-OMe A, C, U; 2'-OH G (rGmH)) [ARC1089] registered a Kd in series [2] of 9.3 nM. On to CUACUACACAUGGGUCGGGUGAGUGGCAAAGGAAUAGUAG (ssRNA, 2'-OMe A, C, U; 2'-OH G (rGmH)) [ARC725], for which the binding result in series [3] is given as “no binding”.

Consider AGAGGAGAGAACGUUCUACUAUGGGUGGCUGGGAGGGG (ssRNA, 2'-OMe A, C, U; 2'-OH G (rGmH)) [ARC1091], for which the Kd in series [4] is 3.1 nM. For orientation: IC50 means the concentration needed to halve the response being measured. A low value points to greater potency in that assay. Turning to GGAGGACCGAAAAAGACCUGACUUCUAUACUAAGUCUACGUUCCUCCA (ssRNA, 2'-F C and U; 2'-OH A and G) [ARC591], the affinity in series [5], expressed as Kd, was 3.4 nM. In series [6], the IC50 is 6.7 nM.

B2: ARC956 (G8) (ssRNA)
RNA: GGGGAGAGGAGAGAACGUUCUACACAUGGGUCGGGUGAGUGGCAAAGGAAUAGGUCGAUCGAUCGAUCAUCGAUG
modifications: 2'-OMe A, C, U; 2'-OH G (rGmH)
The molecule B2 registered a Kd in series [1] of 16 nM. GGGUGGCUGGGAGGGGAAGAGGG (ssRNA, 2'-OMe A, C, U; 2'-OH G (rGmH)) [ARC1088] gave a Kd in series [7] of 2.1 nM.
